From patent US20230002481A1 (Chugai, published 2023) come the findings set out here.

A word on the koff: it is the first-order rate constant of dissociation. By Kd is commonly meant a measure of binding affinity in units of concentration. What is called kon is a measure of how fast the partners come together.

The target in assay [1] is T1, recombinant cyno C1r2s2 His/Flag tetramer (cynomolgus monkey, limits assumed).
T1 construct: Heterotetramer of two C1r-His and two C1s-Flag chains, co-expressed in FreeStyle293-F cells; also called cyno C1r2s2s
T1 chain 1: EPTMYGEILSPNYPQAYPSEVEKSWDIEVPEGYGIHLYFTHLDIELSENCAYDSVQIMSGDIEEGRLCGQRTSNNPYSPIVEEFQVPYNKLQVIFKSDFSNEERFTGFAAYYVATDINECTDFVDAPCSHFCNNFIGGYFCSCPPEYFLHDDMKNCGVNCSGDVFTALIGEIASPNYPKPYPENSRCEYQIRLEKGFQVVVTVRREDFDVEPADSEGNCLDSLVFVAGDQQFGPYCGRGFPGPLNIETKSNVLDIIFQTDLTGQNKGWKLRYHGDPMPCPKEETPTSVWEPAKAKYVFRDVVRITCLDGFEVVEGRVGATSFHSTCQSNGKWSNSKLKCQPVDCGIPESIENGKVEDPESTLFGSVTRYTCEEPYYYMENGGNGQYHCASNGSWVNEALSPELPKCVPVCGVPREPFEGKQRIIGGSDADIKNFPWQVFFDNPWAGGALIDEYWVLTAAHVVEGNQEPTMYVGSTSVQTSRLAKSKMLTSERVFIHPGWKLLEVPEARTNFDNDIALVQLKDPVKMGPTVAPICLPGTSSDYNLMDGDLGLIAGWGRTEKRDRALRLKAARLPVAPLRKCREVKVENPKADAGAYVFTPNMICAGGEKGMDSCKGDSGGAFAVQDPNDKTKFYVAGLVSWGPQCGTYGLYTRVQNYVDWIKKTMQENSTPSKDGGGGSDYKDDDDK
T1 chain 2: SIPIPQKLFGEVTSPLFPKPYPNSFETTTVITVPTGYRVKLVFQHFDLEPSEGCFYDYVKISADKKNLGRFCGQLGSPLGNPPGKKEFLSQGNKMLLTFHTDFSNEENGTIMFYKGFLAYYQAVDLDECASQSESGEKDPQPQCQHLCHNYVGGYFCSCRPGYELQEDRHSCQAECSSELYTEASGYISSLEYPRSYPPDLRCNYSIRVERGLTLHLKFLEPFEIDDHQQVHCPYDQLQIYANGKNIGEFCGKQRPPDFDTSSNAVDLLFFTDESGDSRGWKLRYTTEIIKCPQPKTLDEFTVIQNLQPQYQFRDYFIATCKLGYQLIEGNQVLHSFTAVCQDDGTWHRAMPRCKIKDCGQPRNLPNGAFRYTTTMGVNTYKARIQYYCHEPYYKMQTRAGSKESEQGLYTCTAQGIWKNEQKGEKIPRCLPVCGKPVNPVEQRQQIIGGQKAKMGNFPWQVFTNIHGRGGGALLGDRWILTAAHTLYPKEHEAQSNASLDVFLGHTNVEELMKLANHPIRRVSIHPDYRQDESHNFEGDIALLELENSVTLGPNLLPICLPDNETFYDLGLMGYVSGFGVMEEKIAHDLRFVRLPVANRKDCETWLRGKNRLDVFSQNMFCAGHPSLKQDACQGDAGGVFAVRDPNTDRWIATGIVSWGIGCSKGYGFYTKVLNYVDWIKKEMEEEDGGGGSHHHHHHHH
The assay can be described thus: SPR (Biacore), pH5.8*: dissociation at pH5.8 after association and dissociation at pH7.4, 37 C, Scrubber fit. Here is the method: (§1) The kinetic parameters of anti-C1s antibodies against recombinant human C1s (as described in PCT/JP2018/042054), human C1r2s2, and cyno C1r2s2 His/Flag (also referred as cyno C1r2s2 in the Table and Figures) were assessed at pH7.4 and pH5.8, at 37 degrees C. using BIACORE (registered trademark) T200 instrument (GE Healthcare) or BIACORE 4000 (GE Healthcare). ProAG (Pierce) was immobilized onto a CM4 sensorchip using amine coupling kit (GE Healthcare) according to the recommended settings by GE Healthcare. Antibodies and analytes were diluted into the respective running buffers, ACES pH7.4 and pH5.8 (20 mM ACES, 150 mM NaCl, 1.2 mM CaCl₂, 1 mg/ml BSA, 1 mg/ml CMD, 0.05% Tween 20, 0.005 w/v % NaN₃). Each antibody was captured onto the sensor surface by ProA/G. Antibody capture levels were typically 100-200 resonance units (RU). Then, recombinant C1s was injected at concentrations of 25 and 50 nM followed by dissociation at pH7.4 and pH5.8. The surface was regenerated using 10 mM Glycine-HCl, pH1.5. Kinetic parameters at neutral pH conditions and acidic conditions were determined by fitting the sensorgrams with 1:1 binding model using BIACORE (registered trademark) T200 Evaluation software, version 2.0 (GE Healthcare) or BIACORE 4000 Evaluation software. The dissociation rate at pH5.8 (after dissociation at pH7.4, indicated as pH5.8* in TABLE 2) was determined by processing and fitting data using Scrubber 2.0 (BioLogic Software) curve fitting software. The association rate (ka), dissociation rate (kd), binding affinity (KD) at pH7.4 and pH5.8 condition, and dissociation rate (kd) at pH5.8* condition of the antibodies are listed in TABLE 2. Some kinetic parameters of COS0098pHv1 in acidic condition were not correctly calculated because of its weak binding response.
(§2) Also, to observe the cross-reactivity of anti-C1s antibodies against human C1r2s2 and cyno C1r2s2 (cyno C1r2s2 His/Flag), BIACORE (registered trademark) kinetics analysis was performed.
(In general: In SPR one partner is held on a chip, and binding of the other changes the refractive index at the surface.)

Assay [2] deals with T1, recombinant cyno C1r2s2 His/Flag …. The assay can be described thus: SPR (Biacore), antibody captured on ProA/G, antigen as analyte, 37 C, pH7.4, 1.2 mM CaCl2. As for the experimental part:
as §1, §2

B1: COS0098pHv1 (antibody, V domains shown)
VH: QVQLVQSGAEVKKPGSSVKVSCKASGHTFSKYTVSWIRQPPGKGLEWIGIINTGGSAYPATWAKGRVTITADESTSTAYMELSSLRSEDTAVYYCARGAGDTDYTNLWGQGTLVTVSS
VL: DIQMTQSPSSLSASVGDRVTITCQASENIYSALAWYQQKPGQPPKLLIYGASQLESGVPSRFSGSGSGTDFTLTISSLQPEDFATYYCQQYYFTSHTFGQGTKVEIK
notes: Humanized, optimized pH-dependent variant of COS0098bb
With B1, the dissociation rate constant (koff) in assay [1] was determined as 0.0618 s⁻¹. Besides, in assay [2], the dissociation constant (Kd) stood at 2.87 nM, the koff stood at 0.00125 s⁻¹ and the kon amounted to 435000 M⁻¹ s⁻¹.

B2: COS0098bb (antibody, V domains shown)
VH: QSVEESGGRLVTPGTPLTLTCTVSGFSLTKYTVSWVRQAPGKGLEWIGIINTGGSAYYATWAKGRFTFSKTSTTVDLQITSPTTEDTATYFCARGNGDTDYTNLWGPGTLVTVSS
VL: QVLTQTPSSVSEPVGGTVTINCQASENIYSALAWYQQKPGQPPKLLIYGASNLESGVPSRFKGSGSGTQFTLTISDLECADAATYYCQQYYFTSSTFGGGTKVEIK
notes: Anti-C1s rabbit antibody, parent of COS0098pHv1; the antibody was captured by ProA/G; also called anti-C1s antibody COS0098bb
For B2, the koff in assay [1] came to 0.000926 s⁻¹.
